According to patent US20230002503A1:

Experiments:
[1] = target: human CAIX on CHO cells (CHO-hCAIX) (human) (UniProt Q16790); test: flow cytometry on CHO-hCAIX cells
[2] = target: human CAIX antigen (purchased from AcroBiosystems) (human) (UniProt Q16790); test: BLI (ForteBio), method of Example 3
[3] = target: murine CAIX on CHO cells (CHO-mCAIX) (mouse) (UniProt Q8VHB5); test: flow cytometry on CHO-mCAIX cells
[4] = target: monkey CAIX on CHO cells (CHO-cyCAIX) (monkey); test: flow cytometry on CHO-cyCAIX cells

murine CAIX on CHO cells (CHO-mCAIX) (mouse), sequence (Q8VHB5 32-437): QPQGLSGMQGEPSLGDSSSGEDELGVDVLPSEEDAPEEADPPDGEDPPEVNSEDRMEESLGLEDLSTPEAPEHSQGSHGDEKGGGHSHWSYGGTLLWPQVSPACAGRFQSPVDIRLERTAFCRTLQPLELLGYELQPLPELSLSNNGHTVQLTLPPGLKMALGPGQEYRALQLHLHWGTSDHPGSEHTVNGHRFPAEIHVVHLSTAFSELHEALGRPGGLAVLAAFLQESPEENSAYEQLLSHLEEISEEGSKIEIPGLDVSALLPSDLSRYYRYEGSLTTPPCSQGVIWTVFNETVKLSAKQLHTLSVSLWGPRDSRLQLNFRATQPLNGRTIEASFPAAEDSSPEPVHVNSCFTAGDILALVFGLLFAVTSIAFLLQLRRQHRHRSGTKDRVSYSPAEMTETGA

An EC50 [1] of 16.5 nM, a Kd [2] of 1.01 nM and a koff [2] of 0.0001 s⁻¹ were found for Gerentuximab (antibody) in this work. It also gave a kon [2] of 98600 M⁻¹ s⁻¹, an EC50 [3] of 35.1 nM and an EC50 [4] of 27.9 nM.
